Data from PMC12668130, “RNA-induced PRC2 inhibition depends on the sequence of bound RNA”.

Assays:
[1] = molecular target: PRC2 four-subunit holoenzyme (EZH2-EED-SUZ12-RBAP48) (UniProt Q15910-2;O75530;Q15022;Q09028 1-751;1-441;1-739;1-425); experiment: EMSA; 100 mM KCl; EMSA: 50 mM Tris-HCl pH 7.5 (25 C), 100 mM KCl, 2.5 mM MgCl2, 0.1 mM ZnCl2, 2 mM 2-mercaptoethanol, 0.05 mg/ml BSA, 0.05 mg/ml yeast tRNA, 5% glycerol, 30 C 30; details: protein: recombinant; tags: MBP tags, removed by Prescission protease; copies: 1;1;1;1; label: 5'-32P (EMSA, UV); 5'-biotin (EM); no G4
PRC2 four-subunit holoenzyme (EZH2-EED-SUZ12-RBAP48), sequence (Q15910 other isoform, or with tags, fused parts or gaps, chain 1 of 4): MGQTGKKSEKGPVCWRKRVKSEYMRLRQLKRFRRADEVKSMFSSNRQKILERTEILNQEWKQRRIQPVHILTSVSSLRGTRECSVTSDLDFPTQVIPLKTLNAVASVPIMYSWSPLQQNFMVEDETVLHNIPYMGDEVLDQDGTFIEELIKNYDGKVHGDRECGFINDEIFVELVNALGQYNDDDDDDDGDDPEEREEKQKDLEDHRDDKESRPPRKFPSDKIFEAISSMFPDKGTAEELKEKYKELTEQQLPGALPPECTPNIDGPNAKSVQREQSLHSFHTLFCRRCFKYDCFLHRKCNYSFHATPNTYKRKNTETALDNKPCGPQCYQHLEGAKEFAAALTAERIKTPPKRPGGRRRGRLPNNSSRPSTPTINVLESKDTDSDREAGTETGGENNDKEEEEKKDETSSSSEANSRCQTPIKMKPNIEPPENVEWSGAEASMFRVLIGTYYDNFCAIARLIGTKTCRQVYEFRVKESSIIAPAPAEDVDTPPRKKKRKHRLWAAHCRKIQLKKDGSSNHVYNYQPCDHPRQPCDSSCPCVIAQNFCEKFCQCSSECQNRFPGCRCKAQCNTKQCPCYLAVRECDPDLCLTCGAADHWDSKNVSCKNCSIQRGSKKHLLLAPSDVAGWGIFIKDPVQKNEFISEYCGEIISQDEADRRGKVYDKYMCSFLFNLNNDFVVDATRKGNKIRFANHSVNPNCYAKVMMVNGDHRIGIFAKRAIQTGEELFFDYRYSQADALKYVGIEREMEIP
PRC2 four-subunit holoenzyme (EZH2-EED-SUZ12-RBAP48), sequence (O75530 whole entry, chain 2 of 4): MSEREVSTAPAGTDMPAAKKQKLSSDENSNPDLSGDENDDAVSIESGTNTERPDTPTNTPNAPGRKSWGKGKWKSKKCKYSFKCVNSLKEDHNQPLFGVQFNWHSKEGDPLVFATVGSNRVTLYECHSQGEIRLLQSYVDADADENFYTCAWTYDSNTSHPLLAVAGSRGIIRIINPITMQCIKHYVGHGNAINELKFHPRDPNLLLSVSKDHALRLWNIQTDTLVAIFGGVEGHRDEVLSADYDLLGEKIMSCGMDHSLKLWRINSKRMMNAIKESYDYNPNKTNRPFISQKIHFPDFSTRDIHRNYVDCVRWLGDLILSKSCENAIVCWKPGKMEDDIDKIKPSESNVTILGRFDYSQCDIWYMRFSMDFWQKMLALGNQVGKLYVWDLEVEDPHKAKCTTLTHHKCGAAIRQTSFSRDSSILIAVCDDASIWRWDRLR
PRC2 four-subunit holoenzyme (EZH2-EED-SUZ12-RBAP48), sequence (Q15022 whole entry, chain 3 of 4): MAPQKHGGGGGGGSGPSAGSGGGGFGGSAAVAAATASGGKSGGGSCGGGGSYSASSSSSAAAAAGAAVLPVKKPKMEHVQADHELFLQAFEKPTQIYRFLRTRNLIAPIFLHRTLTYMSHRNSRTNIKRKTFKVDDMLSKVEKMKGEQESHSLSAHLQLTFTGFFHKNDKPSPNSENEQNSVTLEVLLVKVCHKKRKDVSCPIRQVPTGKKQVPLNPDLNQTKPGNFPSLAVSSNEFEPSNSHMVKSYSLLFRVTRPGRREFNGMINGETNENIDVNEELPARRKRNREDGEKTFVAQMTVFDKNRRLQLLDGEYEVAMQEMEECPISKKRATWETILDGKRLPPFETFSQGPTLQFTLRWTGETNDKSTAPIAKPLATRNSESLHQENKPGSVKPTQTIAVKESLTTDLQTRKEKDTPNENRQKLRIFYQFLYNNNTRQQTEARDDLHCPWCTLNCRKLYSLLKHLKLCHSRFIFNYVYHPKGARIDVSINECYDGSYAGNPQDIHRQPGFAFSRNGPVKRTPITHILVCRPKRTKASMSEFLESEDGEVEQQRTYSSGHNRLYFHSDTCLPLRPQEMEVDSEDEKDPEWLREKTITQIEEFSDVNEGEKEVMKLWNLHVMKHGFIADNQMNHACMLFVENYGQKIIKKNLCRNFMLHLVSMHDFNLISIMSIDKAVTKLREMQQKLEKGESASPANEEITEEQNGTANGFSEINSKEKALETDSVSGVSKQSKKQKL
PRC2 four-subunit holoenzyme (EZH2-EED-SUZ12-RBAP48), sequence (Q09028 whole entry, chain 4 of 4): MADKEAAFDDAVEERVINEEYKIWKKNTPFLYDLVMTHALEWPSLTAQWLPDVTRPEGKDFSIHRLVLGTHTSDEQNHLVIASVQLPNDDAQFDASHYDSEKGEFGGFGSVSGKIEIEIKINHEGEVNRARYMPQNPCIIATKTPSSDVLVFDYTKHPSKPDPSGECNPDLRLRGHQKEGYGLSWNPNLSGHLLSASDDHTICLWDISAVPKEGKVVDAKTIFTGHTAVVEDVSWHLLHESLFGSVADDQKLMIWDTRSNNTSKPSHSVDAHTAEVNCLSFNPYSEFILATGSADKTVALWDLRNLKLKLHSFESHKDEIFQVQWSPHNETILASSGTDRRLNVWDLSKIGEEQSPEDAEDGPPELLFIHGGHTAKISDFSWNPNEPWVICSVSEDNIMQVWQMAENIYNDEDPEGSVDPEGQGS

[2] = molecular target: PRC2 five-subunit (EZH2-EED-SUZ12-RBAP48-AEBP2) (UniProt Q15910-2;O75530;Q15022;Q09028;Q6ZN18-3 1-751;1-441;1-739;1-425;1-301); experiment: EMSA; 100 mM KCl; affinity near identical to six-subunit; EMSA: 50 mM Tris-HCl pH 7.5 (25 C), 100 mM KCl, 2.5 mM MgCl2, 0.1 mM ZnCl2, 2 mM 2-mercaptoethanol, 0.05 mg/ml BSA, 0.05 mg/ml yeast tRNA, 5% glycerol, 30 C 30; details: protein: recombinant; tags: MBP tags, removed by Prescission protease; copies: 1;1;1;1;1; label: 5'-32P (EMSA, UV); 5'-biotin (EM); no G4

B1: TERRAmut (ssRNA)
RNA: AAAAAAAAAAGAGAGAGAUGAGUGUGAGUGUGAGUGUGAGUGAGAGAGAG
**Q.** With B1 as the binder, how does the binding signal [1] read?
**A.** The binding signal was 12 Kd ratio TERRAmut/TERRA.

**Q.** And the binding signal [2]?
**A.** The binding signal was 4 Kd ratio TERRAmut/TERRA.
